Kd data for one molecule are collected here from US20220402979A1 (AXON NEUROSCIENCE, published 2022).

The target of one assay is T1, Human Tau2N4R.
T1 construct: target in SPR of the literature rows
Description: SPR; literature table, Jadhav et al. 2019; AVIDITY 'nd.'. On the technique in general: SPR reads the build-up and loss of mass on a sensor chip optically.

For assay [1], the target named is T2, recombinant human mis-disordered tau protein (tau151-391/4R) (human, UniProt P10636 468-708).
T2 construct: No tags are stated; also called pathological tau
T2 sequence (P10636 468-708): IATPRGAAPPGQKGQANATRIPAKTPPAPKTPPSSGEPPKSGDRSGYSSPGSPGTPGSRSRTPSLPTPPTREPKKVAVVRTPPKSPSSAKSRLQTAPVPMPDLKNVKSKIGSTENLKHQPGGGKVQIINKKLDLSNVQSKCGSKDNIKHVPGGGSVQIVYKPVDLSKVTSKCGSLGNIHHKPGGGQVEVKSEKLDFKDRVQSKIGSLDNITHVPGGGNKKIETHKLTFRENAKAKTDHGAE
Description: SPR, target 'Pathological Tau151-391_4R'; literature table, Jadhav et al. 2019; AVIDITY 'nd.'.

T1 sequence (single chain, as listed by the source limits assumed): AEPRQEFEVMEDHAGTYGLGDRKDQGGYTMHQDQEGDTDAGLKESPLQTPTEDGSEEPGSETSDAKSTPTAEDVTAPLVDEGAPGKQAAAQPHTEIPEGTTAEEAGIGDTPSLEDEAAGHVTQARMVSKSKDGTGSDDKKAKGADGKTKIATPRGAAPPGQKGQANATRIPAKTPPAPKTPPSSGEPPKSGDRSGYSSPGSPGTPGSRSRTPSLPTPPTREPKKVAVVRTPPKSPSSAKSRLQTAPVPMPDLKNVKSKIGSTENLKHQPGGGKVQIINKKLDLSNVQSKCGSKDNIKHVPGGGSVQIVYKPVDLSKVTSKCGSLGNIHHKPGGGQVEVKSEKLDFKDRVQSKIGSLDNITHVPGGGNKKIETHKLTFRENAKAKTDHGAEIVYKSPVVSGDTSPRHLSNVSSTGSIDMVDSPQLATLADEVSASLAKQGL

B1: DC8E8 (antibody, V domains shown)
VH: QVQLQQSGPELVKPGTSVKMPCKASGYIFTDYVISWVKQRTGQGLEWIGEIFPRSGSTYYNEKFKGKATLTADKSSNTAYMQLSSVTSEDSAVYFCARDYYGTSFAMDYWGQGTSVTVSS
VL: DIVMSQSPSSLAVSAGEKVTMSCKSSQSLLNSRTRKNYLAWYQQKPGQSPKLLIYWASTRESGVPDRFTGSGSGTDFTLTISSVQAEDLAVYYCKQSFYLRTFGGGTKLDIK
For B1, the Kd with Human Tau2N4R was 91 nM; in assay [1] it was 14 nM.
